T1: human recombinant AXL protein, extracellular domain (hAXL-ECD) (human, UniProt P30530 26-451)
T1 construct: extracellular domain; Bought protein; also called antigen hAXL-ECD; hAXL-ECD protein
T1 sequence (looked up): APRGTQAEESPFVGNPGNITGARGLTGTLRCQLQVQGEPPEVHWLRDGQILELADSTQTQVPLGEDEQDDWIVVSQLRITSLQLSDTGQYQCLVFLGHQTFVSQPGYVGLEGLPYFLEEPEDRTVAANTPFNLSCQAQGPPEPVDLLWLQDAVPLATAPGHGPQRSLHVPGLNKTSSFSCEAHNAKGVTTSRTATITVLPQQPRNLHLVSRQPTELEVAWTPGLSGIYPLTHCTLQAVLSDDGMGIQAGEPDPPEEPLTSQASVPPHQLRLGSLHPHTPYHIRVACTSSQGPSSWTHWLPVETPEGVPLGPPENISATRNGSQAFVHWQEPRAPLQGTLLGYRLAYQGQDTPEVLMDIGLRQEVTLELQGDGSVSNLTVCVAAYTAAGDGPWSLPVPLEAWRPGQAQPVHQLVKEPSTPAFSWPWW

T2: AXL on CHO-AXL cells (human, UniProt P30530 26-894)
T2 construct: whole, on cells; The construct in the CHO-AXL cells is not described
T2 sequence (looked up): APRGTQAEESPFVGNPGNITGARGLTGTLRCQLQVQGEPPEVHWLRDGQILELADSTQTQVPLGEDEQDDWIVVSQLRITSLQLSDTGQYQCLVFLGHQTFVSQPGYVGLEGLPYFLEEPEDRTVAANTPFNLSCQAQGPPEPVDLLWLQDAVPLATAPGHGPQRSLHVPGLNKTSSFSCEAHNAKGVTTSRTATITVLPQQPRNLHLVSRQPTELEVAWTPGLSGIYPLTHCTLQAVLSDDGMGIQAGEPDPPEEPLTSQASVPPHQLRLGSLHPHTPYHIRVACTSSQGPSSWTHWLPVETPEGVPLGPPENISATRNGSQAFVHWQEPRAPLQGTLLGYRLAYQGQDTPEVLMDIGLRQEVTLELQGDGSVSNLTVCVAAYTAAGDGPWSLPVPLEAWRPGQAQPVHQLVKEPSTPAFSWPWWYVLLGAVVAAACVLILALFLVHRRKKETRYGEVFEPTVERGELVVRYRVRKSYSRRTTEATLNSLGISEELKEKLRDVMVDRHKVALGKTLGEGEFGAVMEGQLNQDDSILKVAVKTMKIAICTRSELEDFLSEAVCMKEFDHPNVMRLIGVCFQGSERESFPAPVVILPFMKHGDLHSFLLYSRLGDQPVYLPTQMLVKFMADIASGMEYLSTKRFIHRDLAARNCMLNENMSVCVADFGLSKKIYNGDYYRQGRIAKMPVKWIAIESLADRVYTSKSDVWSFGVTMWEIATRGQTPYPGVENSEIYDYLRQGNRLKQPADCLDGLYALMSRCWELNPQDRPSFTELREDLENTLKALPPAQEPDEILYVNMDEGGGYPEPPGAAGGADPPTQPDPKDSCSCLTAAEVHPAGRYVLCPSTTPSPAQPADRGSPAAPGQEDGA

B1: Hu001-11 Fab (clone 11, expressed in clone supernatant) (Fab, V domains shown)
VH: QVQLLESGGGVVQPGRSLRLSCAASGFTFSSYGMHWVRQAPGKGLEWVAVISYDGSNKYYADSVKGRFTISRDNSKNTLYLQMNSLRAEDTAVYYCAKYGSSGPYWYFDLWGQGTLVTVSA
VL: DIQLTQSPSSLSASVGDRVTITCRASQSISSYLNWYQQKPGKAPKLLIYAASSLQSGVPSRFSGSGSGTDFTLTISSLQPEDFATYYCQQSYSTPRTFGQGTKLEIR
notes: Fab from the phage library clone, tested as bacterial culture supernatant
B2: Hu001-11 antibody (full-length human IgG1, kappa) (antibody, V domains shown)
VH: QVQLLESGGGVVQPGRSLRLSCAASGFTFSSYGMHWVRQAPGKGLEWVAVISYDGSNKYYADSVKGRFTISRDNSKNTLYLQMNSLRAEDTAVYYCAKYGSSGPYWYFDLWGQGTLVTVSA
VL: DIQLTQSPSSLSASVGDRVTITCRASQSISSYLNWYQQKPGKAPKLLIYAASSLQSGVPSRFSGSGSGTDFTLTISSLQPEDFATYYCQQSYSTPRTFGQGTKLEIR
notes: built as human IgG1 with kappa light chain in vectors AbVec-hIgG1 WT and AbVec-hIgKappa, expressed in Expi293 cells; also called anti-AXL antibody Hu001-11
B3: Hu001-14 Fab (clone 14, expressed in clone supernatant) (Fab, V domains shown)
VH: EVQLVQSGAEVKKPGASVKVSCKASGYTFTSYYMHWVRQAPGQGLEWMGIINPSGGSTSYAQKFQGRVTMTRDTSTSTVYMELSSLRSEDSAVYYCARDWYFDVWGAGTTVTVSA
VL: NIQMTQSPSSVSASVGDRVTITCRASQGISSWLAWYQQKPGKAPKLLIYAASSLQSGVPSRFSGSGSGTDFTLTISSLQPEDFATYYCQQANSFPFTFGGGTKVEIK
notes: as for B1
B4: Hu001-7 Fab (clone 7, expressed in clone supernatant) (Fab, V domains shown)
VH: QVQLVQSGAEVKKPGSSVKVSCKASGGTFSSYAISWVRQAPGQGLEWMGGIIPIFGTANYAQKFQGRVTITADESTSTAYMELSSLRSEDTAVYYCAKDIVSRVRGELVGGYYYFGLDVWGQGTTVTVSA
VL: NIQLTQSPSSLSASVGDRVTITCRASQTISSYLNWYQQKPGKAPKLLIYAASRLQSGVPSRFSGSGSGTDFTLTISSLQPEDFATYYCQQSYSTPRTFGQGTKVEIK
notes: as for B1
B5: Hu001-5 Fab (clone 5, expressed in clone supernatant) (Fab, V domains shown)
VH: QVQLLESGGGVVQPGRSLRLSCAASGFTFSSYGMHWVRQAPGKGLEWVAVISYDGSNKYYADSVKGRFTISRDNSKNTLYLQMNSLRAEDTAVYYCAKDQVLAPVGGGLFDYWGQGTLVTVSA
VL: DIQLTQSPSSLSASVGDRVTITCRASQSISTYLNWYQQKPGKAPESLIFAASSLASGVPSRFSGSGSGTDFTLTISSLQPEDFATYYCQQSYSTPRTFGPGTKVEIK
notes: as for B1
B6: Hu001-5 antibody (full-length human IgG1, kappa) (antibody, V domains shown)
VH: QVQLLESGGGVVQPGRSLRLSCAASGFTFSSYGMHWVRQAPGKGLEWVAVISYDGSNKYYADSVKGRFTISRDNSKNTLYLQMNSLRAEDTAVYYCAKDQVLAPVGGGLFDYWGQGTLVTVSA
VL: DIQLTQSPSSLSASVGDRVTITCRASQSISTYLNWYQQKPGKAPESLIFAASSLASGVPSRFSGSGSGTDFTLTISSLQPEDFATYYCQQSYSTPRTFGPGTKVEIK
notes: built as human IgG1 with kappa light chain in vectors AbVec-hIgG1 WT and AbVec-hIgKappa, expressed in Expi293 cells; also called anti-AXL antibody Hu001-5

How the values were obtained:
[1] = molecular target: T1, human recombinant AXL protein, …; assay: ELISA, Fab supernatant on coated hAXL-ECD, OD450; unit inferred, unit taken from the concentration axis
Procedure: Clones from the third round of selection were first picked up in a 96-well deep-well plate containing 300 μL of 2-YT medium and incubated overnight at 37° C. The supernatant, which contained the expressed Fab, was taken, diluted in a gradient, and added to an ELISA plate coated with 2 μg/mL of hAXL-ECD. HRP-labeled goat anti-human Fab was used as the secondary antibody (goat anti-human-HRP, ThermnoFisher, 31482, 1:6000 dilution) for detection. A higher signal value indicated a stronger affinity.

[2] = molecular target: T2, AXL on CHO-AXL cells; assay: flow cytometry on CHO-AXL cells, pH 6.0 against pH 7.4
Procedure: (§1) The affinity of the candidate antibody for specific binding to hAXL-ECD was detected by flow cytometry. A total of 4 clones of Hu001-5, Hu001-7, Hu001-11, and Hu001-14 were tested under acidic (pH=6.0) and neutral (pH=7.4) conditions, respectively.
(§2) CHO-AXL cells (constructed by Shanghai Sinobay Biotechnology Co. Ltd.) were cultured in a cell culture flask in DMEM/F-12 medium (10% FBS, 1% penicillin/streptomycin). After 48 hours of culture at 37° C. in an incubator containing 5% CO₂, the supernatant was discarded. The cells were collected by digestion with 0.25% trypsin and centrifuged at 800 g for 3 minutes. The supernatant was discarded and the cells were resuspended (10⁶/mL) in 2% FBS Wash Buffer. The pH of the buffer was adjusted and the cells were divided into pH6.0 and pH7.4 groups, and primary antibodies (Hu001-5 antibody, Hu001-7 antibody, Hu001-11 antibody, Hu001-14 antibody, and positive control antibody CCT301-38) were added to each group and incubated for 15 minutes at room temperature. The supernatant was discarded. Fluorescent-labeled secondary antibody IgG-Fc-PE (BioLegend, cat. No. 409304) was added and incubation was continued at room temperature for 15 min in the dark. Then, the detection was performed on the machine. A higher signal value can indicate a stronger affinity. […]

[3] = molecular target: T2, AXL on CHO-AXL cells; assay: flow cytometry on CHO-AXL cells, pH 6.0 and pH 7.4, IgG-Fc-PE secondary antibody
Procedure: as §1, §2

Binder | EC50 [1] [µg/mL] | fold of mean fluorescence intensity under the acidic condition against the neutral condition [2] [fold] | fold of mean fluorescence intensity against the positive control CCT301-38 [3] [fold]
B1 | 0.14 |  | 
B2 |  | ~1.5 | ~4
B3 | 0.274 |  | 
B4 | 0.214 |  | 
B5 | 0.292 |  | 
B6 |  | ~1.5 | ~4

— patent US20250019446A1 (SHANGHAI SINOBAY BIOTECHNOLOGY, published 2025)
